{"source": "patent US6369237", "molecular_target": "T1, MutY adenine DNA glycosylase (UniProt P17802)", "T1 sequence": "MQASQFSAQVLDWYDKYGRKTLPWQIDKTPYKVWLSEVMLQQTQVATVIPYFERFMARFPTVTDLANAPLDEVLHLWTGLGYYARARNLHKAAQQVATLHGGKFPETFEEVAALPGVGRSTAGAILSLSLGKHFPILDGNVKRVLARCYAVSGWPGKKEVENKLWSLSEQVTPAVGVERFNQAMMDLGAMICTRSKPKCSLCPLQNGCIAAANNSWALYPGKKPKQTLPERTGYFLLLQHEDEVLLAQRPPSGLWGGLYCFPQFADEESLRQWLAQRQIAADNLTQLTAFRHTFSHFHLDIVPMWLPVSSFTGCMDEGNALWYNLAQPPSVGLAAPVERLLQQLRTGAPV", "test": "EMSA", "details": "pyrrolidine residue lacking a base (inhibitor 1); at least 20 times higher than 2a", "data": [{"substance": "pyrrolidine (inhibitor 1) abasic duplex", "values": [{"measurement": "Kd", "result": 65, "unit": "pM"}]}]}
